Data on 16 sequences can be found in a protein production outcome set (Wang et al. 2014).
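Note: failed if final PepcDB status was selected cloned or expressed and not failed if soluble or beyond.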

A short description of the data set: label from the status in PepcDB records.
Turning to “MRRNRVDVITLGCSKNLVDSEVLMRQFLSNGYTVHHDPASVCGEIVVVNTCGFIGDAQEESVNTILEMVEAKKAGRIGSLYVMGCLSERFREDLKKEIPEVDAYYGKFDWKQLISHLGKSYYAEAENRRKLTTPRHYAYLKISEGCDRSCSYCAIPIITGRHRSRPMEDLVEEVRMLVKHGTREFQLIAQDLTFYGLDLYGANRLAELTARLSDIKGVEWLRLHYAYPAQFPLDLLPVMRERPNVCKYLDMALQHISDPMLGRMRRRITKAETYELIERIRTEVPGIHLRTTLMTGHPGETERDFEELLQFVRDIRFERLGAFTYSHESGTYCDKNYQDDIPESVKQERLGELMAVQERISAAHNEAKIGSRLHVVIDRAEDGFYVGRTEYDSPEVDPEVLIPFVSGQELNPGRFYMAEVTGAEPFDLYARIVDLEHHHHHH”, the protein production result is on record as “failed”.

Regarding “MRRSPCNQGLSNLMQLFTYLAPAGQALLPYLSEISIALVACTLVMLGGEINAFLRRALRNQHFLVRTLAFIFINAFGYGLIIVKASPYVARTLAQLESGMMLTLIVSCFVVIGLWAQRNHQI”, the protein production result is recorded as “failed”.

“MRRSPWRIAYTTKPADTAVPARHPSMAHIFFAASIQRHIATPEREVDARTLGEALEAVFAAQPRLRGYILDDQGALRKHLAVFVDGQPVRDRQHLSDALGENSRVYVIQALTGG”: the protein production entry is listed as “failed”.

For the sequence “MRRSRSSAAAKLRGQKRSGASGASAAPAASAAAALAPSATRTRRSASQAGSKSQAVEKPPSEKPRLRRSSPRAQEEGPGEPPPPELALLPPPPPPPPTPATPTSSASNLDLGEQRERWETFQKRQKLTSEGAAKLLLDTFEYQGLVKHTGGCHCGAVRFEVWASADLHIFDCNCSICKKKQNRHFIVPASRFKLLKGAEHITTYTFNTHKAQHTFCKRCGVQSFYTPRSNPGGFGIAPHCLDEGTVRSMVTEEFNGSDWEKAMKEHKTIKNMSKE”, the protein production result was “failed”.

On to “MRRSSSKKKSGQSTESVTTDLFRSASSKASNKEMDRIDHLFNQYANKSSSLIDPEGIEELCSNLEVSHTDIRILMLAWKMKAEKQGYFTHISFPDMGDYNPELAWPLILDNFVEWIQEKQA”, for which the protein production entry was “failed”.

As to “MRSFSKFAQIVFFGLLIVSAIFVVSCGGSGNAVLNKDKPLVFFNRQPSDPTTGEIDMTSMNWNDKTYYVGFDAAGGGAVQGKLITDFLVSAETSLDRNGDGIIGYVLCIGDVGHNDSKARTEGIRKALGTWAGSTDPGKTKQGSITIAGKTFDVVELEGKAMTGTDGSTWNANAATEAMGGWATKFADQIDMVVSNNDGMAMGCLQASNYPAGVPIFGYDANADAIEAVGKGLLTGTVSQNVDAQATATLQVLRNLLDGLTGTDVYTKGITAEDSYGNKISAPVQYWADVKAVMAANSGVTKANYENYLGGTRDAGIKQTNAPKKKVLLTIYNSGDNFLSSSYLPALKYYAPLLNIELTIVQGDGQNESSCLDKFTNLNNFDAFAVNMVKTNSGSNYTDKLKY”, the protein production entry is “failed”.

On to “MRSGFRRCCPAIQRFKKVQRILLIVLFLNLAVAFAKIIYGTLTSTLSMTADGYHSLFDGVSNIVGLVGSFIAARPPDKEHPYGHQKYETIASIFIALLLLYVGVEIFRHALDRFLIRSVPEVTAISFLVIIGTMCINYLVTRYEYRQGLALRSQVLIADSLHTKSDIYVSLSVILSLAAVKLGFPLLDPLIAVLISFLIFRAGFRIMKESSKVLLDMSRLEEDEICNLVLGVEGVLGCHKIRTRGGMGDIRIDMHVLVQADLTLEEAHLISHRVSKMLKAEYNDVTDVVVHLEPALPQGSYSKKTT”, for which the protein production entry is given as “failed”.

As to “MRSHNLFGDMCEAFMTKYVMTELRPKTQTLYKSTFNKYVTPYKNIDIERYKYTDWIAYFDWVKKESSSANAGSVLKRFKAVANWAKARGQIKHSHLIDIPIKLEHHHHHH”, the protein production entry was “failed”.

“MRSIAMQAADLYVLQTAQSWLDAGQAAVLLTVARTWGSSPRPPGAMMAIRADGAVAGSVSGGCIEDDLIDQIRQRGIAALCPGARPALATYGVDGEQARRFGLPCGGTLQLVLEPLGAHSRLADLLARLRAHQTVRRSVRLADGAVTLEPAAADAEPRLDGAGFASVLGPRHRLLVVGAGQLSRYLCEMAIALDFDVTVSDPRQEYRAGWQVEGVALTTAMPDDMVIAARPDARTAVIALTHDPKLDDLALIDALQTPAFYVGALGSRANHARRVARLREHFGLTPAQLARLRGPAGIYIGSRTPPEIALSIMAEIVAGKNGAPLPPAASVAAGKARQPGGAGVIQAGLCATL”: the protein production result is recorded as “failed”.

As to “MRSNTFIQFAATLVAFVAACLFPAWSMAATHNVVLSAETLPNGQPAYKLLSHTSSNGTVPGYATEATIPGPTLFIKTGDKINVQLTNNTQSPVSFTAPGLSTGNSALAAPGQTKSYRLNARKAGTFAYHDEKAPMLGLFGAIVVDESNGHVQSYVDGDGTIVSTKRSQLSKEFVLFMVGSTFWGAEISRNGNQQPLWANPDLGAYQDDLLRFHVLAVGPGHTFHLHAHRWIEPGSSQKTPHIIDTHILDDLNNSHVFTIKAGTGVGPGVWQLHCHLISHMQSGMNSRIHVVARDSGQSADSIVGASPSGAIFLNDSDQPGLVTFIVSDEPAGWFRSARGDALSPVTHTKSLEIIPPGSSVHFVMSDTAGVHTITSLLWPSEAGHNDHGGDHFMIPFDETKAYRGGAILKLNVPGLYVFTCKIHPFMFAAVIVDDPATDGLDLGNTIDLISGVKNLPTSSDLATRLLHTFFVTTVPKNWQDFTSPNPWKIAYPDVDVVVDIGKVSLPAVLNARYGNDISLSPLPRPAVPGIGEVWVDTQFEKTAGKTKPGTITVVDTSNWTLKRKIALPQINMNNPHNMWPNRDHSIVYTTQWFDNKLTAIKQKTGKLASNVQVGDSPSHVMTLPNTDDITVAINGENDIVIIPAGTTKVNYALLTQSHGQAPGNPHGHWISADGKRIITPNINTHDAGFYDVEDGKIVARTATGEGQPGAHPIAIGMLPDSSKVYAANLLHHSVSVMDGDGNFIKNINLIEHYDPISGAINGPIGILPIQSPVSPDGKVMVTASYGGQIVVIDTRTDSIVKSLPCDPGCHGANFGAKKGGGYYAYITNKFSNRLIVVDPDPNGDGDLSDAEIAGAVTLVADSRVPKDDKISSLAGFGGQGIVALPNVYNGWVQNLNSQWSAGLTDQQRNPVQ”, the protein production entry is listed as “failed”.

With “MRSRVVREGSVGLMLVAGVGALAGLIFWLRGVSLGQDRYDVIVEFNDTAGLTVGTPVIYRGVQVGQVIDITAQSNSVLVRIQIQPASLAIPRDSVISAQISSLLGSPNLTIEPKRNIPAEVLAKTQPRSPNCDRAVILCNGSVVEGAQSASFASILTSIATLVSEIEQAKLVNTLSQTSRDASEAARSIRQLSSSLQQQIPPLRETLNAAQGAASQVEAAIAENRQSVRTTLTNLESSSQELQDILNSLEPAIDKANSGKLVDNLNELSANLAVASRNIRDVSTALNSPENLLTLQQTLDSARITFQNAQKITTDLNRLTGDPAVIENIRRLINSLGRLLSSTGALQEQVTDLKSLPLLPVSESPAGEAVVRRPNQP”, the protein production result is “failed”.

For “MRSSKMDMPIVLSKRHRRLRSMKDCEPGLPYNEIVENGKRIDLCYSKQYKKYTKKIEIRVGTSILHNKLLRIFPNIVKIYSKHFINLPDLITENTEKRELIFIELENLIIGGGTSGLGVLSEISKEEKTLLISSNIESNTDIPYPLPQINKDEFSKLLRDTINENKDRILEGILLGKFDEGIGFLTKDKILMVRAKRVFLATGGRYIPPIFDGNDIPGIISKNLYLRYGNRITKAIALGNSDDIIKVLFKVEKRVIINNGVLFLSKYYKELIDELGVEIINTNNLKVKREKGGMLKIITNERSFDSNILVYAIVKQPKIDHSYNIGIPYNFSEYFHIYMPIHSIEGKTNDNIYIVGGMRGISDEYTSFLSGKTAVNEKYLDEFINNLKDYTYIYDYYYQKNPKENPSPYIYGNKGYVCECEDITLSEVNRQVGRGFSKVEEIKRTIGLGTGECQGKLCTYSLGSFLGDRQLITFRTPLYRMVI”, the protein production result is given as “failed”.

With “MRTDFNVFTTGGAPMKQIIRQFSIGTVAYAIMQVASAQVAITNVVPMNIPGQGTEIRVMFNGLPPQPQAYQLEQPARLILDFDKAGQKLAKSLIPVTTNEASSIDVSSDDKRARVVVNLKDAGAFTTRVEGNVFILKINNIQSTATPVATSAPAPQQGIGNIGFQRGAQGEGLVVIDLQGTNTPVDVQQQGSKVVVRFPGIKIPTHLARRLNTTDFATPVASIDSYNDGSNGVISIQSTGSYEYMAYQAENKLTISLKRPQDNVRLNSKNNQNYTGKKISLDFQDIEVRRVLQLLADFTNINMVTADSVQGNITLHLKDVPWDQALDIILKTKNLDKRRNGNVIWIAPVSELIKSEEDEAKAIAQSTKLAPLQTEYILLKYAKAADIEKLITQGRNSGTSNSNTNGSATVEPLGDSVGTLLSPRGTISLDPRTNTLIINDTSQKIDQIRKMIDLLDIPVKQVMIEARIVRATTSFSKEMGVKWGILSQGINQNSNLLVGGSETTLWNLRNPDSNGTYTIERPDNLNVDLGVTTTGASSIAFGLISLSDFMLDLELSALQADGYGEVISTPKVMSADKQKAKVATGVEVPYQSTTNSAAGSTATTSFKEALLSLEVTPNITPDGKILMELNIANDSINSYAQNGEAILNKNTINTNVLVNNGETVVLGGVFEQTTNNAVTKVPFLGDLPYVGRLFKKTAKSEAKNELLIFVTPRIVNDTIVGNH”, the protein production entry was “failed”.

With “MRTILFKSVPFSKEAVTLALESGVDGIIVPEKHVAPVQALARCKVLCDDAVCTLELTAKADEEEAASRLAAGEDVVLARGWEIIPVENLLARSDRVTVEVASLDEARLAAGILERGVSTVVVLPQAVTELKAIVQELKLSQGRIDLAPAVVTAVRPVGLGHRVCVDTMSLLRTGQGMLVGNSSAFTFLVNAETEHNEYVAARPFRINAGAVHAYAVMPGDRTTYLEELRSGSEVLIVGADGATTIATVGRLKVEVRPMLLVEARVGDTVGAVFLQNAETIRLVRADGTPVSVVALREGDEVLCRTDVAGRHFGMRITEDIREA”, the protein production entry was “failed”.

For “MRTLNKDEHNYIKQIANIHETLLSQVESNYKCTKLSIALRYEMICSRLEHTNDKIYIYENEGQLIAFIWGHFSNEKSMVNIELLYVEPQFRKLGIATQLKIALEKWAKTMNAKRISNTIHKNNLPMISLNKDLGYQVSHVKMYKDID”, the protein production entry is recorded as “not failed”.

On to “MRTRIERTEEMVEQLPLVSVLIPTYNRPSYFEKALCSVLEQTYPNIEIIVGDDSTNDETEKLLQKYLCDHSNIIYIKNRSTLGQFENALMLFNEANGEYINFLMDDDVFHVNKIEKMMKYFFNDLDNEIKLVTSHRQVIDDKGKELRHIYSTVRLFEEDTIIEGTELGNKVIVDQKNYIGEPTTVLFRKNDLQEPYGIFDKRRYLCNVDIASWLSLLSKGKAVYIAETLSYFRLHPDQQLNESNKMMDGLEDFSHSIIAGEQYGFLSTEKELDKAITNFLDYARRIVPSSILYTLDYYQKIRAKKINIEKKKQHINNNSSLPKVSILIPAYNRPYYLELALNSALNQTYENIEIIISDDSTNNEVNAMIQPYLREYECITYVKNETPLVAENFNKCVELANGDYMNFLLDDDLFHHEKIERMMKYFLTLENISFVTSYRELIDENGEILPPSTLNMKIAKETTLFEGKELGNYMLKNLKNVVGEPTTVLFNRDLFDGKFGYFKGKAYSAINDIATWLDMMRKGKVVYIHEPLSYFRQHSGQNQKQMHFILMTIEEWIELIIDAYNSGFLSSESEYKESLSYCLENAGFIVKDAVRNGELDQIYNEKIKKGLNKLVAHMFEKESCYCQYCNQQFEKFSPWPAHYDFPKYKFEMWNKDTGICPVCNSMDRERLYRAYIETETDLLNRNYTMLHIAPEAKLRDWFNEYKNITYVCGDLEPKDPLMKEIDVTRITYDSNTFDVILCSHVLEHVPDDDKAMRELYRVLKPNGWGIIQVPIVMNVDFIIENELIVTPQLRKLAFGQEDHVRIYNQSGFIQRLMNAGFKVELYNIAEKQGMKGARKFGLSETDMLYIVRK”, for which the protein production entry is reported as “failed”.
